B1: Strep II-ECD (natural protein)
chain: MEETMKLATMEDTVEYCLFLIPDESRDSDKHKEILQKYIERIITRFAPMLVPYIWQNQPFNLKYKPGKGGVPAHMFGVTKFGDNIEDEWFIVYVIKQITKEFPELVARIEDNDGEFLLIEAADFLPKWLDPENSTNRVFFCHGELCIIPAPRKSGAESWLPTTPPTIPQALNIITAHSEKILASESIRAAVNRRIRGYPEKIQASLHRAHCFLPAGIVAVLKQRPRLVAAAVQAFYLRDPIDLRACRVFKTFLPETRIMTSVTFTKCLYAQLVQQRFVPDRRSGYRLPPPSDPQYRAHELGMKLAHGFEILCSKCSPHFSDCKKSLVTASPLWASFLESLKKNDYFKGLIEGSAQYRERLEMAENYFQLSVDWPESSLAMSPGEEILTLLQTIPFDIEDLKKEAANLPPEDDDQWLDLSPDQLDQLLQEAVGKKESESVSKEEKEQNYDLTEVSESMKAFISKVSTHKGAELPREPSEAPITFDADSFLNYFDKILGPRPNESDSDDLDDEDFECLDSDDDLDFETHEPGEEASLKGTLDNLKSYMAQMDQELAHTCISKSFTTRNQVEPVSQTTDNNSDEEDSGTGESVMAPVDVDLNLVSNILESYSSQAGLAGPASNLLQSMGVQLPDNTDHRPTSKPTKN
B2: GST-ZNHIT2-C (domain or fragment)
chain: GPVSPLVRFQLPNVLFAYAHTLALYHGGDDALLSDFCATLLGVSGALGAQQVFASAEEALQAAAHVLEAGEHPPGPLGTRGAMHEVARILLGEGPTNQKGYTLAALGDLAQTLGRARKQAVAREERDHLYRARKKCQFLLAWTNENEAALTPLALDCARAHQAHAVVAEEV
B3: GST-ZNHIT2ΔC (domain or fragment)
chain: MEPAGPCGFCPAGEVQPARYTCPRCNAPYCSLRCYRTHGTCAENFYRDQVLGELRGCSAPPSRLASALRRLRQQRETEDEPGEAGLSSGPAPGGLSGLWERLAPGEKAAFERLLSRGEAGRLLPPWRPWWWNRGAGPQLLEELDNAPGSDAAELELAPARTPPDSVKDASAAEPAAAERVLGDVPGACTPVVPTRIPAIVSLSRGPVSPLVRFQLPNVLFAYAHTLALYHGGDDALLSDFCATLLGVSGALGAQQVFASAEEALQAAAHVLEAGEHPPGPLGTRGAMHEVARILLGEGPTNQKGYTLAALGDLAQTLGRARKQAVAREERDHLYRARKKCQFLLAWTNENEAALTPLALDCARAHQAHAVVAEEV
B4: ZNHIT2ΔC (domain or fragment)
chain: B3 chain
B5: AAR2-His (natural protein)
chain: MAAVQMDPELAKRLFFEGATVVILNMPKGTEFGIDYNSWEVGPKFRGVKMIPPGIHFLHYSSVDKANPKEVGPRMGFFLSLHQRGLTVLRWSTLREEVDLSPAPESEVEAMRANLQELDQFLGPYPYATLKKWISLTNFISEATVEKLQPENRQICAFSDVLPVLSMKHTKDRVGQNLPRCGIECKSYQEGLARLPEMKPRAGTEIRFSELPTQMFPEGATPAEITKHSMDLSYALETVLNKQFPSSPQDVLGELQFAFVCFLLGNVYEAFEHWKRLLNLLCRSEAAMMKHHTLYINLISILYHQLGEIPADFFVDIVSQDNFLTSTLQVFFSSACSIAVDATLRKKAEKFQAHLTKKFRWDFAAEPEDCAPVVVELPEGIEMG
B6: 6xHis-AAR2-Strep II (natural protein)
chain: B5 chain

Legend:
RUVBL1–RUVBL2 complex = RUVBL1–RUVBL2 complex (human, UniProt Q9Y265;Q9Y230); experiment: pull-down
PRPF8-Flag = PRPF8-Flag (human, UniProt Q6P2Q9 1-2335); experiment: pull-down
RUVBL1 [1] = target: T1, RUVBL1 (human, UniProt Q9Y265 1-456); experiment: pull-down
RUVBL2 [2] = target: T2, RUVBL2 (human, UniProt Q9Y230 1-463); experiment: pull-down
Strep II-ECD = target: B1; experiment: pull-down
[3] = target: His-RUVBL1–RUVBL2 complex (human, UniProt Q9Y265;Q9Y230); experiment: pull-down
6xHis-AAR2-Strep II = target: B6; experiment: pull-down
AAR2-His = target: B5; experiment: pull-down
RUVBL1 [4] = target: T1, RUVBL1; experiment: cross-linking
RUVBL2 [5] = target: T2, RUVBL2; experiment: cross-linking

Measured: binding result

B1
binds: RUVBL1–RUVBL2 complex | PRPF8-Flag

B2
binds: RUVBL1 [1] | RUVBL1–RUVBL2 complex | RUVBL2 [2]

B3
binds: RUVBL1 [1] | RUVBL1–RUVBL2 complex | RUVBL2 [2] | Strep II-ECD | [3]

B4
binds: 6xHis-AAR2-Strep II | AAR2-His | PRPF8-Flag | Strep II-ECD | RUVBL1 [4] | RUVBL2 [5]

B5
binds: Strep II-ECD

B6
binds: RUVBL1–RUVBL2 complex

Reference: PMC8789047 (Nucleic Acids Research, 2021)
